# Experimental data from patent US6544767B1, “Cathespin O2 protease” (Axys Pharmaceuticals, Inc., priority 1994, dated 2003).
# Read-outs that look alike come from different tables or passages of the source.
# T1: recombinant human cathepsin O2 (Homo sapiens, UniProt P43235)
# T1 construct: the mature protein spans from position 115 to 329 (215 amino acids); made in house; host or cells: Sf9 insect cells (baculovirus, pVL1392)
# T1 sequence (P43235 115-329): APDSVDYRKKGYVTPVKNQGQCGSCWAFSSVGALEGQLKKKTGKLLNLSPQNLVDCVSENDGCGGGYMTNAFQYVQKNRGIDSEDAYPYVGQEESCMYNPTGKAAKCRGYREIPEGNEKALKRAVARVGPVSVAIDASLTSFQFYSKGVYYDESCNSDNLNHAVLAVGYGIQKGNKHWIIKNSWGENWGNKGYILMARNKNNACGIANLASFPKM
# Columns and labels:
# [1] = test system: denatured soluble calf skin collagen; assay: Gelatinase activity, SDS-PAGE; format: biochemical
# Procedure: (§1) FIGS. 9A and 9B depict SDS PAGE of type I collagen (soluble calf skin collagen) after digestion with recombinant human cathepsin O2 and L and bovine trypsin. FIG. 9A: Collagenase activity: Digestion of soluble calf skin collagen at 28° C. and at pH 4.0, 5.0, 5.5, 6.0, 6.5, 7.0 by human cathepsins O2, S and L (each 50 nM) for 12 hours. The reaction was stopped by addition of 10 μM E-64. Untreated soluble collagen was used as standard (S). FIG. 9B: Gelatinase activity: Digestion of denatured soluble calf skin collagen (10 min heated at 70° C.) at 28° C. and at pH 4.0, 5.0, 5.5, 6.0, 6.5, 7.0 by human cathepsin O2 (0.1 nM), cathepsin L (0.2 nM) and human cathepsin S (1 nM). Molecular mass standards are indicated in the left lane.
# (§2) Soluble calf skin Type I collagen was diluted to 0.4 mg/ml into 100 mM-sodium acetate buffer, pH 4.5, 5.0, 5.5, in 100 mM-potassium phosphate buffer, pH 6.0, 6.5 and 100 mM-Tris/HCl, pH 7.0 containing 2 mM-dithiotreitol/2 mM-EDTA. Human cathepsins O2, S and L and bovine trypsin (Sigma) were incubated at concentrations of 100 nM enzyme concentration for 10 hours at 28° C. To measure the gelatinase activity of cathepsins O2 and S, Type I collagen was heated for 10 min at 70° C. prior to incubation with the proteases. In the presence of 1 nM proteases the reaction mix was incubated for 30 min at 28° C. The samples were subjected to SDS polyacrylamide electrophoresis using 4-20% Tris-glycine gels (Novex, San Diego, Calif.).
# [^3H] elastin = Elastin degradation assay; format: biochemical
# Procedure: Elastin (2 mg) was incubated in I ml buffer containing 2.5 mM dithiothreitol, 2.5 mM EDTA and 0.05% Triton X-100 for the cathepsin O2, S and L assays. Aliquots were withdrawn after 10, 20, 30, 50, 90, 120 and 180 min, centrifuged for 1 min at 14,000×g and counted in a 24-well plate containing scintillation fluid with Liquid Scintillation counter (1450 Microbeta Plus, Wallac/Pharmacia). Concentrations of human cathepsins O2, S and L and bovine elastase in the elastin degradation assay were 65 nM, 28 nM, 80 nM and 80 nM, respectively. To determine the pH effect on protease activity the digests were carried out at pH 4.5 and 5.5 (100 mM sodium acetate, 2.5 mM each dithiothreitol and EDTA, 0.05% Triton X-100), and at pH 7.0 (100 mM Tris/HCl, 2.5 mM each of dithiothreitol and EDTA, 0.05% Triton X-100). Pancreatic bovine elastase (Boehringer, Mannheim, Ind.) was assayed under the same conditions except that neither dithiothreitol nor EDTA was added to the incubation mixture.
# [2] = test system: Soluble calf skin Type I collagen; assay: Collagenase activity, SDS-PAGE; format: biochemical
# Procedure: as §1, §2
# pH activity profile = format: biochemical; conditions: for pH optimum: calculated from (pK1 + pK2)/2
# Procedure: Initial rates of substrate hydrolysis were monitored as described above. The pH activity profile of human cathepsin O2 was obtained at 1 μM substrate (Z-FR-MCA) concentration ([S]<<Km where the initial rate vo is directly proportional to the kcat/Km value). The following buffers were used for the pH activity profile: 100 mM sodium citrate (pH 2.8-5.6) and 100 mM sodium phosphate (pH 5.8-8.0). All buffers contained 1 mM EDTA and 0.4 M NaCl to minimize the variation in ionic strength. A three protonation model (Khouri et al., Biochem. 30:8929-8936 (1991)) was used for least square regression analysis of the pH activity data. The data were fitted to the following equation.
# (kcat/Km)obs=(kcat/Km)/([H^+]/K1+1+K2/[H^+])
# pH stability at 37° C. = format: physicochemical
# Procedure: The residual activity was measured in time intervals using the above described fluorimetric substrate assay. The pH stability of cathepsins O2, S and L was studied at three different pH values. Recombinant human cathepsins O2, S and L were incubated at 37° C. in 100 mM sodium acetate buffer, pH 5.5, in 100 mM potassium phosphate buffer, pH 6.5 and in 100 mM Tris/HCl, pH 7.5 containing 5 mM dithiothreitol and 2.5 mM EDTA. Incubating for 0.5, 1, 2 and 4 hours, the activity remaining was determined using 5 μM Z-FR-MCA for cathepsin O2 (100 mM potassium phosphate buffer, pH 6.5) and cathepsin L (100 mM sodium acetate buffer, pH 5.5) and 5 μM Z-VVR-MCA for cathepsin S (100 mM potassium phosphate buffer, pH 6.5).
# [3] = from literature; cited from earlier work
# [4] = target: T1, recombinant human cathepsin O2; assay: Inhibitor profile, fluorimetric enzyme assay with Z-FR-MCA; format: biochemical
# Procedure: Human cathepsin O2 was assayed with a fluorogenic substrate Z-FR-MCA (MCA, methyl coumarylamide) in 100 mM sodium acetate buffer, containing 2.5 mM dithioerythreitol and 2.5 mM EDTA. Initial rates of hydrolysis of the MCA-substrate are monitored in 1-cm cuvettes at 25° C. at an excitation wavelength at 380 nm and an emission wavelength at 450 nm. The concentration of Z-FR-MCA is 5 μM under standard conditions.
# The inhibition of cathepsin O2 was assayed at a constant substrate (5 μM Z-FR-MCA) and enzyme concentration (1 nM) in the presence of different inhibitor concentrations in the substrate assay buffer. Cathepsin O2 was preincubated with the inhibitors for 10 min and the reaction was started with substrate. The residual activity was monitored and percent inhibition was calculated from the uninhibited rate.
# The efficacy of protease class specific inhibitors to inhibit cathepsin O2 was determined by adding the inhibitor to the purified enzyme in a fluorimetric enzyme assay (described above).
Molecule,gelatinase activity [1],elastinolytic activity ([^3H] elastin; pH 4.5) [mg/min/μmol enzyme],elastinolytic activity ([^3H] elastin; pH 5.5) [mg/min/μmol enzyme],elastinolytic activity ([^3H] elastin; pH 7.0) [mg/min/μmol enzyme],pH optimum (pH activity profile),"Residual activity (%) (pH stability at 37° C.; pH 5.5, 37° C., 0.5 hr)","Residual activity (%) (pH stability at 37° C.; pH 5.5, 37° C., 1 hr)","Residual activity (%) (pH stability at 37° C.; pH 5.5, 37° C., 2 hr)","Residual activity (%) (pH stability at 37° C.; pH 5.5, 37° C., 4 hr)","Residual activity (%) (pH stability at 37° C.; pH 6.5, 37° C., 0.5 hr)","Residual activity (%) (pH stability at 37° C.; pH 6.5, 37° C., 2 hr)","Residual activity (%) (pH stability at 37° C.; pH 6.5, 37° C., 4 hr)","Residual activity (%) (pH stability at 37° C.; pH 7.5, 37° C., 0.5 hr)","Residual activity (%) (pH stability at 37° C.; pH 7.5, 37° C., 1 hr)","Residual activity (%) (pH stability at 37° C.; pH 7.5, 37° C., 2 hr)","Residual activity (%) (pH stability at 37° C.; pH 7.5, 37° C., 4 hr)",pK1 of pH activity profile [3],pK2 of pH activity profile [3],width of the pH profile [3],collagenolytic activity [2],further results
"cathepsin O2: recombinant human cysteine protease of the papain family, mature enzyme expressed in Sf9 cells (protein) APDSVDYRKKGYVTPVKNQGQCGSCWAFSSVGALEGQLKKKTGKLLNLSPQNLVDCVSENDGCGGGYMTNAFQYVQKNRGIDSEDAYPYVGQEESCMYNPTGKAAKCRGYREIPEGNEKALKRAVARVGPVSVAIDASLTSFQFYSKGVYYDESCNSDNLNHAVLAVGYGIQKGNKHWIIKNSWGENWGNKGYILMARNKNNACGIANLASFPKM",powerful gelatinase activity,245,286,170,6.1,91,88,70,52,85,22,15,11,0,0,0,–,–,–,–,"time to total degradation of denatured collagen ([1]; 0.1 nM enzyme, pH range of 5.0 to 7.0): ≤ 30 min; pH of maximal elastinolytic activity ([^3H] elastin): 5.5; elastinolytic activity relative to pancreatic elastase ([^3H] elastin; neutral pH): 2.4 times; elastinolytic activity relative to cathepsin L ([^3H] elastin; pH 5.5): ~9 times; degradation of Type I collagen ([2]; between pH 5.0 and 6.0 at 28° C.): extensively degraded; degradation of Type I collagen ([2]; pH 4.5 and pH 7.0, 28° C.): much less pronounced; pK1′ of pH activity profile (pH activity profile): 3.43 ± 0.05; width of the pH profile (pH activity profile): 4.15; pK1 of pH activity profile (pH activity profile; listed as Human cathepsin O2): 4.0; pK2 of pH activity profile (pH activity profile; listed as Human cathepsin O2): 8.13; pK1 of pH activity profile (pH activity profile; listed as human cathepsin O2): 4.00 ± 0.02; pK2 of pH activity profile (pH activity profile; listed as human cathepsin O2): 8.13 ± 0.01"
cathepsin S: recombinant human cathepsin S expressed using the baculovirus expression system (protein) LPDSVDWREKGCVTEVKYQGSCGACWAFSAVGALEAQLKLKTGKLVSLSAQNLVDCSTEKYGNKGCNGGFMTTAFQYIIDNKGIDSDASYPYKAMDQKCQYDSKYRAATCSKYTELPYGREVDLKEAVANKGPVSVGVDARHPSFFLYRSGVYYEPSCTQNVNHGVLVVGYGDLNGKEYWLVKNSWGHNFGEEGYIRMARNKGNHCGIASFPSYPEI,significant weaker activity than the cathepsins O2 and L,146,102,55,6.1,100,95,92,83,100,94,71,91,72,61,60,4.49 ± 0.03,7.82 ± 0.03,3.35,very weak collagenolytic activity,"Residual activity (%) (pH stability at 37° C.; pH 6.5, 37° C., 1 hr): 100%"
"papain: cysteine protease, literature comparison (protein, UniProt P00784 134-345, looked up) Papain: IPEYVDWRQKGAVTPVKNQGSCGSCWAFSAVVTIEGIIKIRTGNLNEYSEQELLDCDRRSYGCNGGYPWSALQLVAQYGIHYRNTYPYEGVQRYCRSREKGPYAAKTDGVRQVQPYNEGALLYSIANQPVSVVLEAAGKDFQLYRGGIFVGPCGNKVDHAVAAVGYGPNYILIKNSWGTGWGENGYIRIKRGTGNSYGVCGLYTSSFYPVKN",–,–,–,–,6.5,–,–,–,–,–,–,–,–,–,–,–,4.54 ± 0.29,8.45 ± 0.02,3.91,–,pK1′ of pH activity profile [3]: 3.58 ± 0.29
chicken cystatin: cysteine protease inhibitor (protein) SEDRSRLLGAPVPVDENDEGLQRALQFAMAEYNRASNDKYSSRVVRVISAKRQLVSGIKYILQVEIGRTTCPKSSGDLQSCEFHDEPEMAKYTTCTFVVYSIPWLNQIKLLESKCQ,–,–,–,–,–,–,–,–,–,–,–,–,–,–,–,–,–,–,–,–,% inhibition ([4]; [inhibitor] 0.1 μM): 100%; inhibition of enzyme activity ([4]; concentrations above 0.1 μM): completely inhibit
"trypsin: bovine trypsin (Sigma) (protein, UniProt P00760 24-246, looked up) Serine protease 1: IVGGYTCGANTVPYQVSLNSGYHFCGGSLINSQWVVSAAHCYKSGIQVRLGEDNINVVEGNEQFISASKSIVHPSYNSNTLNNDIMLIKLKSAASLNSRVASISLPTSCASAGTQCLISGWGNTKSSGTSYPDVLKCLKAPILSDSSCKSAYPGQITSNMFCAGYLEGGKDSCQGDSGGPVVCSGKLQGIVSWGSGCAQKNKPGVYTKVCNYVSWIKQTIASN",–,–,–,–,–,–,–,–,–,–,–,–,–,–,–,–,–,–,–,No degradation,–
